Results: paper PMC11696352

Target: importin α5 (UniProt P52294)
Assay: Flag co-IP, immunoblot
Conditions: reference: Flag-GCLM wild type; sites T17

GCLM (glutamate-cysteine ligase modifier subunit) (from UniProt P48507) Flag-GCLM T17A
binding against the reference: weaker
